The supplement of paper PMC9170038

Tested on: MS2 coat protein
Experiment: apparent KD of MS2 coat protein; designed switch direction (-1 OFF switch, 1 ON switch): 1; higher = weaker reporter binding
Method in brief: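 An oligonucleotide input, 200 uM small-molecule ligand, or no input was present during titration of SNAP-549-labelled MS2 coat protein, which was doubled from 0.7 or 1.5 nM to 3 µM. Designed RNA switches had been transcribed on Illumina chips by stalled E. coli RNA polymerase. Apparent KD per design is the median over clusters of curves fitted to normalised cluster fluorescence.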

[1] = Eterna round: R95, input ligand: FMN 200 uM
[2] = Eterna round: R95, input ligand: microRNA oligo, concentration not stated
[3] = Eterna round: R95, input ligand: none
[4] = input ligand: microRNA oligo, concentration not stated

| Sequence | apparent KD of MS2 coat protein [1] [µM] | apparent KD of MS2 coat protein [2] [µM] | apparent KD of MS2 coat protein [3] [µM] | apparent KD of MS2 coat protein (input ligand: FMN 200 uM) [µM] | apparent KD of MS2 coat protein [4] [µM] | apparent KD of MS2 coat protein (input ligand: none) [µM] |
| --- | --- | --- | --- | --- | --- | --- |
| UAGCACUGUCGAGAGGAUAUGCGGUGAUGGACAUGAGGAUCACCCAUGUUAGCGACAGCAUCACGGCAGAAGGCUCUACUGCUGC [Soteed Omei mod 35] (puzzle: Same State 2) | 0.0117 | 0.0156 | 0.0137 |  |  |  |
| UAGGAACAUGAGGAUCACCCAUGUACCUCAUAUGGAGAAACACAGGAUAUGCUCAGCGAAAGAGAGCAGAAGGGUGAAGAGAGG [Default title] (Eterna round: R96, puzzle: Same State NG 3) |  |  |  | 0.0236 | 0.0276 | 0.0316 |
| UAGGAUCAACGAGGAUAUAAUAGGUUCAAUUUUUUAUAUUGUUUACAUGAGGAUCACCCAUGUUAUUAGAAGGCGUAUGGGAUU [JR_SSNG2_Sub084] (Eterna round: R96, puzzle: Same State NG 2) |  |  |  |  | 0.0399 |  |
| UAUCCAUAGAUAGGAUAUCAGUAUACAUGAGGAUCACCCAUGUUAUAUUUGGUUUUAAGUUAGUCUGAGAAGGAUCUUGAUGAA [SameState NG2 #3] (Eterna round: R96, puzzle: Same State NG 2) |  |  |  | 0.0124 | 0.0111 | 0.0156 |
| UAUGAAUAGCAAGGAUAUUGAUAACAUGAGGAUCACCCAUGUAAUUGAUCGAGUUAGAUCAGUUACAAGAAGGUGCAAUUGAUU [JR_SSNG2_Sub035] (Eterna round: R96, puzzle: Same State NG 2) |  |  |  |  | 0.0194 |  |
| UAUUAAGCUGUAGGAUAUCUAGGAUAUGGACGAGGAUCACCCGAGCAGCAUCAGCGCACCAGAGGAGAGAAGGACGCUUUGGAA [pwkr ssNG2 2F5 2FMN.3] (Eterna round: R96, puzzle: Same State NG 2) |  |  |  | 0.463 | 0.882 | 0.916 |
| UAUUAAGCUGUAGGAUAUCUAGGAUAUGGACGAGGAUCACCCGAGCAGCAUCAGCGCACCAGAGGAGAGAAGGACGCUUUGGUG [pwkr ssNG2 2F5 2FMN.23] (Eterna round: R96, puzzle: Same State NG 2) |  |  |  | 0.961 | 0.348 | 2.73 |
| UAUUUAAUCAUAGGAUAUAGAGUGAAAUUUGGACUAGAAGGAUGUAACAUGAGGAUCACCCAUGUGGUAAGUGGGACACAGUGU [JR_SSNG1_Sub094] (Eterna round: R96, puzzle: Same State NG 1) |  |  |  | 0.206 | 0.0855 | 0.129 |
| UAUUUAAUCAUAGGAUAUAGUGUGAAAUUUGGACUAGAAGGAUGUAACAUGAGGAUCACCCAUGUGGUAAGUGGGACACAGUGA [JR_SSNG1_Sub096] (Eterna round: R96, puzzle: Same State NG 1) |  |  |  |  | 0.114 |  |
| UCAACUUCUUUUAGUGUGUUGCCAGUUUUACAUGAGGAUCACCCAUGUUAAGUAUUGUGGUAUUUUGUUCGUCUUAA [JR_SHM208A_Sub073] (puzzle: Sensor for hsa-mir-208a) | 0.0156 | 0.0143 | 0.0163 |  |  |  |
| UCAAGCGAGAGGCUCGUCUUAUGCAAGGAACAUGAGGAUCACCCAUGUGAGGGACGAUUGAGUUAGAUGGAAUGGAG [JR_SHM208A_Sub032] (puzzle: Sensor for hsa-mir-208a) | 0.0299 | 0.136 | 0.0335 |  |  |  |
| UCAAGGUUUUUGCUCGUUUUAUGUGUUGAACAUGAGGAUCACCCAUGUAUUGUACGAUCCAGUUAGAUGGUGGUUUG [JR_SHM208A_Sub042] (puzzle: Sensor for hsa-mir-208a) | 0.0874 | 0.0781 | 0.132 |  |  |  |
| UCAUGGUUUUUGCUCGUUUUAUGUGUUGAACAUGAGGAUCACCCAUGUAUUGUACGAUCCAGUUAGAUGGUGGUUUG [JR_SHM208A_Sub043] (puzzle: Sensor for hsa-mir-208a) | 0.235 | 0.0858 | 0.469 |  |  |  |
| UCCGCUAUCUAGAAGGAUAUGCGUAAAUAAACAUGAGGAUCACCCAUGUACCGGCGAAAGCCGGUGCAGAAGGUUUAGCUAGUGA [Xeisgexe] (puzzle: Same State 2) | 0.0382 | 0.574 | 0.39 |  |  |  |
| UCGGGCGUACUUGCUGACAUGAGGAUCACCCAUGUCCUUGGACAGGAUAUGGUUCCGUUUCGGUUCCAGAAGGUCCUGGCUGCU [salish99_SSNG3_r04_320] (Eterna round: R96, puzzle: Same State NG 3) |  |  |  | 0.0318 | 0.0255 | 0.0409 |
| UCUUGGUUUUUGCUCGUUUUUUGUGUUGAACAUGAGGAUCACCCAUGUAUUGUACGGUCCAGUUUGAUAGUGGUCCG [JMF 33] (puzzle: Sensor for hsa-mir-208a) | 0.0256 | 0.0136 | 0.0299 |  |  |  |

| Sequence | apparent KD of MS2 coat protein [1] [µM] | apparent KD of MS2 coat protein [2] [µM] | apparent KD of MS2 coat protein [3] [µM] | apparent KD of MS2 coat protein (input ligand: FMN 200 uM) [µM] | apparent KD of MS2 coat protein [4] [µM] | apparent KD of MS2 coat protein (input ligand: none) [µM] |
| --- | --- | --- | --- | --- | --- | --- |
| UCUUGGUUUUUGCUCGUUUUUUGUGUUGAACAUGAGGAUCACCCAUGUAUUGUACGGUCCGAUUUAGUAGUGGUCCG [JMF 18] (puzzle: Sensor for hsa-mir-208a) | 0.026 | 0.0145 | 0.0269 |  |  |  |
| UCUUGGUUUUUGCUCGUUUUUUGUGUUGAACAUGAGGAUCACCCAUGUAUUGUACGGUCCGGUUUAGUGAUGAUCCA [JMF 76] (puzzle: Sensor for hsa-mir-208a) | 0.188 | 0.196 | 0.287 |  |  |  |
| UGAACCUUCACAGGAUAUCAUGCGAAAAUUGCGUGAGAAGGGUGAAUAUGGUGUUCAUAGUUGCACAUGAGGAUCACCCAUGUA [SameState NG1 #53] (Eterna round: R96, puzzle: Same State NG 1) |  |  |  |  | 0.0923 |  |
| UGAAUAGUCACAGGAUAUCAUGCGAAAAUUGCGUGAGAAGGGUGGAUGUUGUGCUCAAAGUUCUACAUGAGGAUCACCCAUGUU [SameState NG1 #43] (Eterna round: R96, puzzle: Same State NG 1) |  |  |  | 0.0612 | 0.064 | 0.0633 |
| UGAAUAUUCACAGGAUAUGAGUUGUAAAGUGGAUCAGAAGGGUGGGUGUUUUGCACGGUGUGUUACAUGAGGAUCACCCAUGUU [SameState NG1 #24] (Eterna round: R96, puzzle: Same State NG 1) |  |  |  | 0.205 | 0.232 | 0.627 |
| UGCAUACAUGAGGAUCACCCAUGUCUACGAUGUCGAGGAUAUGGAUUGCCGUGAGGCGUGCCAGAAGGCGAAGUGG [Same State 1 - Mod of Vinnie Teenbexe v.2] (puzzle: Same State 1) | 0.0262 | 0.0337 | 0.0301 |  |  |  |
| UGCCUGAGUCGAGGAUAUUAUGGAUCAAUUAAUACAUGAGGAUCACCCAUGUAAUUAAUUUAACAUGAGAAGGCGACUCAGGCA [SSNG2/10-A2] (Eterna round: R96, puzzle: Same State NG 2) |  |  |  | 0.00788 | 0.00469 | 0.00881 |
| UGGAGAAAUCAAGGAUAUGCUACCGUUUCGGUAGCAGAAGGUGAUCACAUGAGGAUCACCCAUGUAUGCAUGCGUGAGCGUGCU [JL SSNG1 3.54] (Eterna round: R96, puzzle: Same State NG 1) |  |  |  |  | 0.0126 |  |
| UGGAUCUAGGCUUGCCUGGGUCCAUGCUGACAUGAGGAUCACCCAUGUGCAUCCUACAAGCUUUUUGCUUGUCUGUC (Eterna round: R96, puzzle: Sensor for hsa-mir-208a) |  |  |  | 0.384 | 0.607 | 0.53 |
| UGGAUCUAGGCUUGCCUGGGUCCAUGCUGACAUGAGGAUCACCCAUGUGCAUCCUACAAGCUUUUUGCUUGUCUGUC (puzzle: Sensor for hsa-mir-208a) | 0.0607 | 0.0697 | 0.051 |  |  |  |
| UGGCUCAGACUAGGAUAUACGUGGUCACAUGAGGAUCACCCAUGUCUCGAGCUUCGGCUCGAGGCGUAGAAGGAGUCUGAGCCA [SSNG2/6-D2] (Eterna round: R96, puzzle: Same State NG 2) |  |  |  | 0.145 | 0.199 | 0.184 |
| UGGCUCAGAGCAGGAUAUAUGUAAUAACAUGAGGAUCACCCAUGUGUCGAGCUUCGGCUCGACACAUAGAAGGGCUCUGAGCCU [SSNG2/2-B3] (Eterna round: R96, puzzle: Same State NG 2) |  |  |  | 0.012 | 0.0288 | 0.0403 |
| UGGUACAUGGGAGGAUAUCAUGCAAACAUGAGGAUCACCCAUGUAACCAUGGAGACAUGGAUAUAUGAGAAGGCCCAUGUACCU [JL SSNG1 3.51] (Eterna round: R96, puzzle: Same State NG 2) |  |  |  | 0.011 | 0.0196 | 0.0279 |
| UGGUACAUGGGAGGAUAUCAUGUAGAAACAUGAGGAUCACCCAUGUAGAUGGCACGAUUCGUGAAUGAGAAGGCCCAUGUACCU [JL SSNG1 3.60] (Eterna round: R96, puzzle: Same State NG 2) |  |  |  | 0.0368 | 0.0382 | 0.0528 |
| UGGUACAUGGGAGGAUAUCAUGUAGAAACAUGAGGAUCACCCAUGUAGAUGGCAGCUUUGCUGAAUGAGAAGGCCCAUGUACCU [JL SSNG1 3.58] (Eterna round: R96, puzzle: Same State NG 2) |  |  |  | 0.0156 | 0.0189 | 0.0228 |
| UGGUACAUGGGAGGAUAUCAUGUAGAAACAUGAGGAUCACCCAUGUAGGUGGCCGGUAACCGGAAUGAGAAGGCCCAUGUACCU [JL SSNG1 3.62] (Eterna round: R96, puzzle: Same State NG 2) |  |  |  | 0.0486 | 0.0486 | 0.0611 |
